Publication PMC12014896 (2025)

The binders below were run against SARS-CoV-2 spike RBD (Wuhan-Hu-1) (Severe acute respiratory syndrome …, UniProt P0DTC2) (assay: SPR).

Binder | Kd [nM]
COVIC-31 (antibody, V domains shown) VH: EVQLVESGVEVKKPGASVKVSCKAFGYTFTGQDMHWVRQAPGQGLEWMGWINPSSAGTNYAQKFQGRVTMTRDTSISTAYMELSRLRSDDTSVYYCRKMLTIFGKVNQTMLLISGAKGQWSPSLQWGQGTMVTVSS VL: DIVMTQTPLSLSVTPGQPASISCKSGQSLLHSDGKTYLYWYLQKPGQPPQLLIYEVSNRFSGVPDRFSGSGSGTDFTLKISRVEAEDVGVYYCMQSIQLPPTFGQGTKVEIK | 70.2
COVIC-186 (antibody, V domains shown) VH: QVQLLQSGAEVKKPGASVKVSCKASGYSFTSYYMHWVRQAPGQGLEWMGIINPSGGGTTYAQKFQGRVTMTRDTSTSTVYMELSSLRSEDTAVYYCARPGGGSYQEFDYWGQGTLVTVSS VL: DIQMTQSPSSLSASVGDRVTITCRASQSISSYLNWYQQKPGKAPKLLISAASSLQSGVPSRFSGSGSGTDFTLTISSLQPEDFATYYCQQSYNTLQVTFGGGTKVEIK | 6.1
COVIC-184 (antibody, V domains shown) VH: QITLKESGPTLVKPTQTLTLTCTFSGFSLSTSGVGVGWIRQPPGKALEWLALIYWDDDKRYSPSLKSRLTITKDTSKNQVVLTMTNMDPVDTATYYCAHHKIERIFDYWGQGTLVTVSS VL: QSALAQPASVSGSPGQSITISCTGTSSDVGAYNYVSWYQQHPGKAPKLMIYDVSKRPSGVSNRFSGSKSGNTASLTISGLQAEDEADYYCSSYTTSSTVFGGGTKLTVL | 34.4
COVIC-297 (antibody, V domains shown) VH: EVLLVESGGGLIQPGGSLRLSCAASGLTVSSNYMSWVRQAPGKGLEWVSVIYSGGSTFYADSVKGRFTISRDNSKNTLYLQMNSLRAEDTAVYYCARDLVTWGLDYWGQGTLVTVSS VL: AIQLTQSPSSLSASVGDRVTITCRASQGISSYLAWYQQKPGKAPKLLIYAASTLQSGVPSRFSGSGSGTDFTLTISSLQPEDFATYYCQLLNTDPITFGQGTRLEIK | 0.271
COVIC-295 (antibody, V domains shown) VH: QVQLVQSGAEVKKPGSSVKVSCKASGGTFSSYSFIWVRQAPGQGLEWMGRIIPILGIANYAQKFQGRVTITADKSTTTAYMELSSLRSEDTAVYYCARGTEYGDYDVSHDWGQGTLVTVSS VL: not shown | 0.266
COVIC-143 (antibody, V domains shown) VH: EVQLVESGGGVVQPGRSLRLSCAASGFTFSNYAMHWVRQAPGKGLEWVAVISYDGSNKYSADSVKGRFTISRDNSKNTLYLQMNSLRPEDTAVYYCARDGVGTMVRGVMSPLFDYWGQGTLVTVSS VL: not shown | 5.91
COVIC-290 (antibody, V domains shown) VH: QMQLVQSGPEVKKPGTSVKVSCKASGFTFSSSAVQWVRQARGQHLEWIGWIVVGSGNTNYAQKFQERVTLTRDMSTRTAYMELSSLRSEDTAVYYCAAPNCNSTTCHDGFDIWGQGTVVTVSS VL: EIVLTQSPGTLSLSPGERATLSCRASQSVRSSYLGWYQQKPGQAPRLLIYGASSRATGIPDRFSGSGSGTDFTLTISRLESEDFAVYYCQQYDNSPWTFGQGTKVEIK | 0.326
COVIC-250 (antibody, V domains shown) VH: QVQLQQSGPGLVKPSETLALTCTVSGGSTSSYYWSWIRQPPGKGLEWIGSIYYSGSTDYNPSLKSRVTISLDTSKTQFSLKLSSVTAADTAVYYCARVDTSGWYTGDVFDYWGQGTLVTVSS VL: DIQMTQPPSSLSASVGDRVTITCRASQSLSSYLNWYQQKPGKAPKLLIYAVFSLQSGVPSRFSGSGSGTDFTLTISSLQPEDFATYYCQQSYSTPLTFGGGTKVEIK | 17.7
